Earlier results, collected in publication PMC6232131.

Target: fibrinogen beta (Homo sapiens) (UniProt P02675)
UniProt P02675, sequence (P02675 45-491): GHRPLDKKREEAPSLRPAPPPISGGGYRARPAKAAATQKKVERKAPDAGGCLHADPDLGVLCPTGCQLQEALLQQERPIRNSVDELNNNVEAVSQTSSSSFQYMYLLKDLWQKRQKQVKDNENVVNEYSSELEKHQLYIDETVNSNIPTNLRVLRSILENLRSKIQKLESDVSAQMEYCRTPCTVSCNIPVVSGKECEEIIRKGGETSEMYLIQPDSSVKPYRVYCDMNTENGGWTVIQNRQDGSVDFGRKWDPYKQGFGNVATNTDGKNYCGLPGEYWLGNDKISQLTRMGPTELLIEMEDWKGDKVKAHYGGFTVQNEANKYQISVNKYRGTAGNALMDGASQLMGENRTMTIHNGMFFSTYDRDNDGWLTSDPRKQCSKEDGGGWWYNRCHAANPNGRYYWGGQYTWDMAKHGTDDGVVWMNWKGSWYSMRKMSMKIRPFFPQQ

SdrG N2N3 (from UniProt Q9KI13)
Kd: 400 nM
